Test results published in US20260001928A1 (CORTERIA PHARMACEUTICALS, priority 2022, published 2026).
*1 amine or outer side, *2 acyl side, *3 side chain or, on linkers, in order; H or OH if unused. Where no end group is shown, it is not given here. Side-chain parts run from the residue outwards. [ ]: non-standard residue; d: D form. The star is where a group is joined. C18 diacid = O=C(O)CCCCCCCCCCCCCCCCC(=O)*; C16 diacid = O=C(O)CCCCCCCCCCCCCCC(=O)*; γGlu = O=C(O)[C@H](CCC(=O)[*:2])N[*:1]; NMeI = CC[C@H](C)[C@H](NC)C(=O)O; Pentanoyl = CCCCC(=O)*; AEEA = NCCOCCOCC(=O)O; Aib = CC(C)(N)C(=O)O

T1: CRF1R receptor (UniProt P34998 24-415, limits assumed)
T1 sequence (looked up): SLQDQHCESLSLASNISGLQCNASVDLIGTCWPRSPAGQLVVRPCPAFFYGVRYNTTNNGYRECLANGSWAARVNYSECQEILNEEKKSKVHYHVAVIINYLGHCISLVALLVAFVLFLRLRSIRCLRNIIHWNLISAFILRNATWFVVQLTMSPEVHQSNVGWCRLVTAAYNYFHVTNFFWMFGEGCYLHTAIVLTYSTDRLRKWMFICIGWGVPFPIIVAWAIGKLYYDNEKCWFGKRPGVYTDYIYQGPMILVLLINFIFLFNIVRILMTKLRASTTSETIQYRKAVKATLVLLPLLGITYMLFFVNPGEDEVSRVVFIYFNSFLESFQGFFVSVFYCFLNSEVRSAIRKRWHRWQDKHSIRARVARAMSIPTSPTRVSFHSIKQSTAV


Legend:
[1] = biological target: human corticotropin-releasing factor 2a (CRF2a receptor) (human), Q13324; assay: cell-based or functional assay
CRF1R receptor = biological target: T1, CRF1R receptor; assay: cell-based or functional assay

human corticotropin-releasing factor 2a (CRF2a receptor) (human), Q13324, sequence (Q13324 20-411): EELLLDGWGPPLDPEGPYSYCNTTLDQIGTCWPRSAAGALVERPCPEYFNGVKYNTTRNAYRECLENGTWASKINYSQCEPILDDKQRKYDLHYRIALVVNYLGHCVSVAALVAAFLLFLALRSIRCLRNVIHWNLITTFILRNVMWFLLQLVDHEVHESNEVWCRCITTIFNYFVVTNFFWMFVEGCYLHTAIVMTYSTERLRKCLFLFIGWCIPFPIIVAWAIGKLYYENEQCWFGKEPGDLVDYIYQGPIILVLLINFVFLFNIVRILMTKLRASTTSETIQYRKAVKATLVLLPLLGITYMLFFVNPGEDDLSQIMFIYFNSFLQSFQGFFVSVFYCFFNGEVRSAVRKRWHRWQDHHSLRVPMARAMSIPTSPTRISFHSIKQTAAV

Binder	EC50 [nM] (cAMP) [1]	Emax (% I) (CRF1R receptor) [%]	EC50 (CRF1R receptor) [nM]
Pentanoyl-VLSLD[dV]PIKLK([γGlu-C16 diacid])KILLEQEKQKKQREQAETNVQILAQV-NH2 (SMILES CCCCC(=O)N[C@H](C(=O)N[C@@H](CC(C)C)C(=O)N[C@@H](CO)C(=O)N[C@@H](CC(C)C)C(=O)N[C@@H](CC(=O)O)C(=O)N[C@@H](C(=O)N1CCC[C@H]1C(=O)N[C@H](C(=O)N[C@@H](CCCCN)C(=O)N[C@@H](CC(C)C)C(=O)N[C@@H](CCCCNC(=O)CC[C@H](NC(=O)CCCCCCCCCCCCCCC(=O)O)C(=O)O)C(=O)N[C@@H](CCCCN)C(=O)N[C@H](C(=O)N[C@@H](CC(C)C)C(=O)N[C@@H](CC(C)C)C(=O)N[C@@H](CCC(=O)O)C(=O)N[C@@H](CCC(N)=O)C(=O)N[C@@H](CCC(=O)O)C(=O)N[C@@H](CCCCN)C(=O)N[C@@H](CCC(N)=O)C(=O)N[C@@H](CCCCN)C(=O)N[C@@H](CCCCN)C(=O)N[C@@H](CCC(N)=O)C(=O)N[C@@H](CCCNC(=N)N)C(=O)N[C@@H](CCC(=O)O)C(=O)N[C@@H](CCC(N)=O)C(=O)N[C@@H](C)C(=O)N[C@@H](CCC(=O)O)C(=O)N[C@H](C(=O)N[C@@H](CC(N)=O)C(=O)N[C@H](C(=O)N[C@@H](CCC(N)=O)C(=O)N[C@H](C(=O)N[C@@H](CC(C)C)C(=O)N[C@@H](C)C(=O)N[C@@H](CCC(N)=O)C(=O)N[C@H](C(N)=O)C(C)C)[C@@H](C)CC)C(C)C)[C@@H](C)O)[C@@H](C)CC)[C@@H](C)CC)C(C)C)C(C)C) [SEQ ID NO 81]	0.8	6	
IVLSLD[dV]PIKLK([AEEA-AEEA-γGlu-γGlu-C16 diacid])QILLKQERQKKQREQAEKNKQILEQV-NH2 [SEQ ID NO 146]	0.1	27	100
[NMeI]VLSLD[dV]PIKLK([γGlu-C16 diacid])KILLEQEKQKKQREQAETN[Aib]QILAQV-NH2 (N-terminus assumed; SMILES CC[C@H](C)[C@H](NC)C(=O)N[C@H](C(=O)N[C@@H](CC(C)C)C(=O)N[C@@H](CO)C(=O)N[C@@H](CC(C)C)C(=O)N[C@@H](CC(=O)O)C(=O)N[C@@H](C(=O)N1CCC[C@H]1C(=O)N[C@H](C(=O)N[C@@H](CCCCN)C(=O)N[C@@H](CC(C)C)C(=O)N[C@@H](CCCCNC(=O)CC[C@H](NC(=O)CCCCCCCCCCCCCCC(=O)O)C(=O)O)C(=O)N[C@@H](CCCCN)C(=O)N[C@H](C(=O)N[C@@H](CC(C)C)C(=O)N[C@@H](CC(C)C)C(=O)N[C@@H](CCC(=O)O)C(=O)N[C@@H](CCC(N)=O)C(=O)N[C@@H](CCC(=O)O)C(=O)N[C@@H](CCCCN)C(=O)N[C@@H](CCC(N)=O)C(=O)N[C@@H](CCCCN)C(=O)N[C@@H](CCCCN)C(=O)N[C@@H](CCC(N)=O)C(=O)N[C@@H](CCCNC(=N)N)C(=O)N[C@@H](CCC(=O)O)C(=O)N[C@@H](CCC(N)=O)C(=O)N[C@@H](C)C(=O)N[C@@H](CCC(=O)O)C(=O)N[C@H](C(=O)N[C@@H](CC(N)=O)C(=O)NC(C)(C)C(=O)N[C@@H](CCC(N)=O)C(=O)N[C@H](C(=O)N[C@@H](CC(C)C)C(=O)N[C@@H](C)C(=O)N[C@@H](CCC(N)=O)C(=O)N[C@H](C(N)=O)C(C)C)[C@@H](C)CC)[C@@H](C)O)[C@@H](C)CC)[C@@H](C)CC)C(C)C)C(C)C) [SEQ ID NO 64]	0.19	4	
Pentanoyl-VLSLD[dV]PIKLK([γGlu-C16 diacid])KILLEQEKQKKQREQAETN[Aib]QILAQV-NH2 (SMILES CCCCC(=O)N[C@H](C(=O)N[C@@H](CC(C)C)C(=O)N[C@@H](CO)C(=O)N[C@@H](CC(C)C)C(=O)N[C@@H](CC(=O)O)C(=O)N[C@@H](C(=O)N1CCC[C@H]1C(=O)N[C@H](C(=O)N[C@@H](CCCCN)C(=O)N[C@@H](CC(C)C)C(=O)N[C@@H](CCCCNC(=O)CC[C@H](NC(=O)CCCCCCCCCCCCCCC(=O)O)C(=O)O)C(=O)N[C@@H](CCCCN)C(=O)N[C@H](C(=O)N[C@@H](CC(C)C)C(=O)N[C@@H](CC(C)C)C(=O)N[C@@H](CCC(=O)O)C(=O)N[C@@H](CCC(N)=O)C(=O)N[C@@H](CCC(=O)O)C(=O)N[C@@H](CCCCN)C(=O)N[C@@H](CCC(N)=O)C(=O)N[C@@H](CCCCN)C(=O)N[C@@H](CCCCN)C(=O)N[C@@H](CCC(N)=O)C(=O)N[C@@H](CCCNC(=N)N)C(=O)N[C@@H](CCC(=O)O)C(=O)N[C@@H](CCC(N)=O)C(=O)N[C@@H](C)C(=O)N[C@@H](CCC(=O)O)C(=O)N[C@H](C(=O)N[C@@H](CC(N)=O)C(=O)NC(C)(C)C(=O)N[C@@H](CCC(N)=O)C(=O)N[C@H](C(=O)N[C@@H](CC(C)C)C(=O)N[C@@H](C)C(=O)N[C@@H](CCC(N)=O)C(=O)N[C@H](C(N)=O)C(C)C)[C@@H](C)CC)[C@@H](C)O)[C@@H](C)CC)[C@@H](C)CC)C(C)C)C(C)C) [SEQ ID NO 80]	0.35	10	
[NMeI]VLSLD[dV]PIKLK([AEEA-AEEA-γGlu-C18 diacid])KILLEQEKQKKQREQAETN[Aib]QILAQV-NH2 (N-terminus assumed; SMILES CC[C@H](C)[C@H](NC)C(=O)N[C@H](C(=O)N[C@@H](CC(C)C)C(=O)N[C@@H](CO)C(=O)N[C@@H](CC(C)C)C(=O)N[C@@H](CC(=O)O)C(=O)N[C@@H](C(=O)N1CCC[C@H]1C(=O)N[C@H](C(=O)N[C@@H](CCCCN)C(=O)N[C@@H](CC(C)C)C(=O)N[C@@H](CCCCNC(=O)COCCOCCNC(=O)COCCOCCNC(=O)CC[C@H](NC(=O)CCCCCCCCCCCCCCCCC(=O)O)C(=O)O)C(=O)N[C@@H](CCCCN)C(=O)N[C@H](C(=O)N[C@@H](CC(C)C)C(=O)N[C@@H](CC(C)C)C(=O)N[C@@H](CCC(=O)O)C(=O)N[C@@H](CCC(N)=O)C(=O)N[C@@H](CCC(=O)O)C(=O)N[C@@H](CCCCN)C(=O)N[C@@H](CCC(N)=O)C(=O)N[C@@H](CCCCN)C(=O)N[C@@H](CCCCN)C(=O)N[C@@H](CCC(N)=O)C(=O)N[C@@H](CCCNC(=N)N)C(=O)N[C@@H](CCC(=O)O)C(=O)N[C@@H](CCC(N)=O)C(=O)N[C@@H](C)C(=O)N[C@@H](CCC(=O)O)C(=O)N[C@H](C(=O)N[C@@H](CC(N)=O)C(=O)NC(C)(C)C(=O)N[C@@H](CCC(N)=O)C(=O)N[C@H](C(=O)N[C@@H](CC(C)C)C(=O)N[C@@H](C)C(=O)N[C@@H](CCC(N)=O)C(=O)N[C@H](C(N)=O)C(C)C)[C@@H](C)CC)[C@@H](C)O)[C@@H](C)CC)[C@@H](C)CC)C(C)C)C(C)C) [SEQ ID NO 118]	0.6	7	
Pentanoyl-VLSLD[dV]PIKLK([AEEA-AEEA-γGlu-C18 diacid])KILLEQEKQKKQREQAETN[Aib]QILAQV-NH2 (SMILES CCCCC(=O)N[C@H](C(=O)N[C@@H](CC(C)C)C(=O)N[C@@H](CO)C(=O)N[C@@H](CC(C)C)C(=O)N[C@@H](CC(=O)O)C(=O)N[C@@H](C(=O)N1CCC[C@H]1C(=O)N[C@H](C(=O)N[C@@H](CCCCN)C(=O)N[C@@H](CC(C)C)C(=O)N[C@@H](CCCCNC(=O)COCCOCCNC(=O)COCCOCCNC(=O)CC[C@H](NC(=O)CCCCCCCCCCCCCCCCC(=O)O)C(=O)O)C(=O)N[C@@H](CCCCN)C(=O)N[C@H](C(=O)N[C@@H](CC(C)C)C(=O)N[C@@H](CC(C)C)C(=O)N[C@@H](CCC(=O)O)C(=O)N[C@@H](CCC(N)=O)C(=O)N[C@@H](CCC(=O)O)C(=O)N[C@@H](CCCCN)C(=O)N[C@@H](CCC(N)=O)C(=O)N[C@@H](CCCCN)C(=O)N[C@@H](CCCCN)C(=O)N[C@@H](CCC(N)=O)C(=O)N[C@@H](CCCNC(=N)N)C(=O)N[C@@H](CCC(=O)O)C(=O)N[C@@H](CCC(N)=O)C(=O)N[C@@H](C)C(=O)N[C@@H](CCC(=O)O)C(=O)N[C@H](C(=O)N[C@@H](CC(N)=O)C(=O)NC(C)(C)C(=O)N[C@@H](CCC(N)=O)C(=O)N[C@H](C(=O)N[C@@H](CC(C)C)C(=O)N[C@@H](C)C(=O)N[C@@H](CCC(N)=O)C(=O)N[C@H](C(N)=O)C(C)C)[C@@H](C)CC)[C@@H](C)O)[C@@H](C)CC)[C@@H](C)CC)C(C)C)C(C)C) [SEQ ID NO 120]	1.33	3	
[NMeI]VLSLD[dV]PIKLK([γGlu-C16 diacid])KILLEQEKQKKQREQAETNVQILAQV-NH2 (N-terminus assumed; SMILES CC[C@H](C)[C@H](NC)C(=O)N[C@H](C(=O)N[C@@H](CC(C)C)C(=O)N[C@@H](CO)C(=O)N[C@@H](CC(C)C)C(=O)N[C@@H](CC(=O)O)C(=O)N[C@@H](C(=O)N1CCC[C@H]1C(=O)N[C@H](C(=O)N[C@@H](CCCCN)C(=O)N[C@@H](CC(C)C)C(=O)N[C@@H](CCCCNC(=O)CC[C@H](NC(=O)CCCCCCCCCCCCCCC(=O)O)C(=O)O)C(=O)N[C@@H](CCCCN)C(=O)N[C@H](C(=O)N[C@@H](CC(C)C)C(=O)N[C@@H](CC(C)C)C(=O)N[C@@H](CCC(=O)O)C(=O)N[C@@H](CCC(N)=O)C(=O)N[C@@H](CCC(=O)O)C(=O)N[C@@H](CCCCN)C(=O)N[C@@H](CCC(N)=O)C(=O)N[C@@H](CCCCN)C(=O)N[C@@H](CCCCN)C(=O)N[C@@H](CCC(N)=O)C(=O)N[C@@H](CCCNC(=N)N)C(=O)N[C@@H](CCC(=O)O)C(=O)N[C@@H](CCC(N)=O)C(=O)N[C@@H](C)C(=O)N[C@@H](CCC(=O)O)C(=O)N[C@H](C(=O)N[C@@H](CC(N)=O)C(=O)N[C@H](C(=O)N[C@@H](CCC(N)=O)C(=O)N[C@H](C(=O)N[C@@H](CC(C)C)C(=O)N[C@@H](C)C(=O)N[C@@H](CCC(N)=O)C(=O)N[C@H](C(N)=O)C(C)C)[C@@H](C)CC)C(C)C)[C@@H](C)O)[C@@H](C)CC)[C@@H](C)CC)C(C)C)C(C)C) [SEQ ID NO 66]	1.05	4	
